In article PMC3485097, “Branching of the p-nitrophenol (PNP) degradation pathway in burkholderia sp. Strain SJ98: Evidences from genetic characterization of PNP gene cluster” (AMB Express, 2012) one finds stoichiometry N (molecules of each subunit (2:2)) and Km data, which are given here for two molecules.

For assay [1], the target named is PnpE2, small subunit of hydroquinone dioxygenase (HqD) of Burkholderia sp. strain SJ98 (Burkholderia sp. strain SJ98). Description: SEC; purified PnpE1 and PnpE2 mixed in molar ratios from 3:1 to 1:3 in 50 mM phosphate buffer pH 7.0, incubated at 30°C for 1 h, then Sephacryl-200 gel filtration; molecular weight from the elution volume against standard proteins. (In general: SEC sorts molecules by how far they enter the pores of the column.)

The subject of assay [2] is T1, reconstituted HqD (PnpE1_2-PnpE2_2 heterotetrameric complex).
T1 construct: gene pnpE1; N-terminal 6xHis on both subunits (pDEST17), E. coli BL21-AI; mixed, gel-filtered, ~120 kDa heterotetramer; with Hydroquinone dioxygenase small subunit
Description: spectrophotometric, 4-hydroxymuconic semialdehyde formation at […] nm. Type of assay: biochemical, Burkholderia sp. SJ98. The note with it: pH 7.0, 25°C; Fe(II) required (100 μM FeSO4 in the standard assay).

“PnpE1, large subunit of hydroquinone dioxygenase (HqD) of Burkholderia sp. strain SJ98 (natural protein)”: in assay [1], the stoichiometry N (molecules of each subunit (2:2)) worked out at 2.

On to `Oc1ccc(O)cc1` [HQ, hydroquinone], for which the Michaelis-Menten constant (Km) – broadly, the concentration of substrate that gives half-maximal velocity – in assay [2] amounted to 65.3 ± 10.5 µM.
